Variants at the floor of the assay were thinned out.

B1: TPR 5TU (parent)
chain: GGAUCUUCUCGAUCUAACAAAAAAGACAAAUCUGCCACAAAGCUUGAGAGCAUCUUCGGAUGCAGAGGCGGCAGCCUUCGGUGGCGCGAUAGCGCCAACGUUCUCAACUAUGACACGCAAAACGCGUGCUCCGUUGAAUGGAGUUUAUCAUG

In this series the parent is B1. In words: polymerase ribozyme fitness, log enrichment relative to wild type (log ratio); higher = more active; in vitro selection for triplet polymerase activity. An outline of the steps:
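Fitness compares each genotype's enrichment to that of the wild type on a logarithmic scale, averaging replicates with inverse-variance weights. The logarithm is base 2. Enrichment came from Illumina sequencing of input and output libraries after one triplicate round of in vitro selection, which included frozen incubation at −7 °C, of PCR-built, transcribed mutant libraries of each subunit of a heterodimeric triplet polymerase ribozyme. Only genotypes with ≥10 input reads and ≥1 read per output were kept.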
On to GGAUCUUCUCGAUCCAACAAAAAAGACAAAUCUGCCACAAAGCUUGAGAGCAUCUUCGGAUGCAGAGGCGGCAGCCUUCGGUGGCGCGAUAACGCCAAGGUUCUCAACUAUGACACGCAAAACGCGUGCUCCGUUGAAUGGAGUUUAACAUG, for which the “polymerase ribozyme fitness (log ratio)” value was at most -4.2.
In the case of GGAUCUUCUCGAUCGAACAAAAAAGACUAAUCUGCCACAAAGCUUGAGCGCAUCUUCGGAUGCAGCGGCGGCAGCCUUAGGUGGCGCGAUAGCGCCUACGUUCUCAACUAUGACACGCAAAACACGUGCUCCGUUGAAUGGAGUUUAUCAUG, the “polymerase ribozyme fitness (log ratio)” value is at most -4.2.
Turning to GGAUCUUCUCGAUCCAACAAAAAAGACAAAUCUGCCACAAAGCUUGAGAGCAUCUACGGAUGCAGAGGCGGCAGCCUUCGGUGGCGCGAUAGCACCAACGUUCUCAACUAUGACACGCAAAACGCGUGCUCCGUUGAAUGGGGUUUAUCAUG, the “polymerase ribozyme fitness (log ratio)” value is -0.297.
In the case of GGAUCUUCUCGAUCCAACAAAAAAGACAAAUCUGCCACAAAGCUUGAGAGCAUCUACGGAUGCAGAGGAGGCAGCCUUCGGUGACGCGAUAGCGCCAACGUUCUCAACUAUGACACGCAAAACGCGUGCUCCGUUAAAUGGAGUUUAUCAUG it was -0.468; in that of GGAUCUUCUCGAUCCAACAAAAAAGACAAAUCUGCCACAUAGCUUGAGAGCAUCUUCGCAUGCAGAGGCGGCAGCCUUCGGUGGUGCGAUAGCGCCAACGUUCUCAACUAUGACACGCAAAACGCGUGCUCCGUUGAAUGGAGUUUAUCAUG, 1.15.
With GGAUCUUCUCGAUCCAACAAAAAAGACAAAUCUGCCACAAAGCUUGAGAGCAUCUUCGGAUGCAGAGGCGGCAGCCUUCGGUGGCACGAUAGCGCCAACGUUCUCAACUAUGACACGCAAAACGCGUGCUCCGUUGAAUGGAGUUUAUCAUG, the “polymerase ribozyme fitness (log ratio)” value was determined as 0.14.
In the case of GGAUCUUCUCGAUCGUACAAAAAAGACAAAUCUGCCACAAAGCUUGAGAGCAUCUUCGGAUGCAGAGGCGGCAGCCUUCGGUGGUGCGAUAGCGCCAACGUUCUCAACUAUGACACGUAAAACGCGUGCUCCGUUGAAUGGAGUUUAUCAUG it was -1.42; in that of GGAUCUUCUCGAUCCAACAAAAAAGACAAAUCUGCCACAAAGCUUGAGAGCAUUUUCGGAUGCAGAGGCGGCAGCCUUCGGUGGCGCGAUAGCGCCAACGUUCUCAACUAUGACACGCAAAACGCGUGCUCCGUUGAAUGGAGUUUAUCAUG, 0.268; in that of GGAUCUUCUCGAUCGAACAAAAAAGACAUAUCUGCCACAAAGCUUGAGAGCAUCUUCGGAUGCAGAGGCGGCAGGCUUCGGUGGCGGUAUAGCGCCAACGUUCUCAACUAUGACACGCGAAACGCGUGCUCCGUUGAAUGGAGUUUAUAAUG, at most -4.2.
Under GGAUCUUCUCGAUCGAUCAAAAAAAACAAAUCUGCCACAAAGCUUGAGAGCAUCUUCGGAGGCAGAGGCGGCAGCCUUCGGUGGCGCGAUAGGGCCAACGUUCUCAACUAUGACACGCAAAACGCGUGCUCCGUUGAAUUGAGUUUAUCAUG stands at most -4.2; under GGAUCUUCUCGAUCCAACAAAAAAGACAAAUCUGCCACAAAGCUUGAGAGCAUCUUCGGAUGCAGAGGCGGCAGCCUUCGGUGGCGCGAUAGCGCCAAGGUUCUCAACUAUGACACGCAAAACGCGUGCUCCGUUGAAUGGAGUUUAUCAUG, -0.377; under GGAUCUUCUCGAUCCAACAAAAAAGACAAAUCUGCCACAAAGCUUGAGAGCAUCUUCGGAUGCAGAGGCGGCAGCCUUCGGUGGCGCAAUAGCGCCAACGUUCUCAACUAUGACACGCAAAACGCGUGCUCCGUUGAAUGGAGUUUAUCAUG, -3.6.
In the case of GGAUCUUCUCGAUCCAACAAAAAAGACAAAUCUGCCACAAAGCUUGAGACCAUCUUCGGAUGCAGAGGCGGCAGCCUUCGGUGGCGCGAUAGCGCCAACGGUCUUAACUAUGACACGCAAAACGCGUGCUCCGUUGAAUGGAGUUUAUCAUG it was -1.68; in that of GGAUCUUCUCGAUCGAACAAAAAAGACAUAUCUGCCACAAAGCUUGAGAGCAUCUUCGGAUGCAGAGGCGGCAGCAUUCGGUAGCGCGAUAGCGCCAACGUUCUCAACUAUGACACGCAAAACGCGUGCUCCGUUGAAUGGAGUUUAUCAUG, at most -4.2; in that of GGAUCUUCUCGAUCCAACAAAAAAGACAAAUCUGCCACAAAGCUUGAGAGCAUCUUCGGAUGCAGAGGCGGCAGCCUUCGGUGGCGCGAUCGCUCGAACGUUCUCAACUAUGACACGCAAAACGCGUGCUCCGUUGAAUGGAGUUUAUCAUG, at most -4.2.
With GGAUCUUCUCGAUCGAACAAAAAAGACAAAUCUGCCUCAAAGCUUGAGAGCCUCUUCGGAUGCAGAGGCGGCAGCCUUCGGUGGCGCGACAGCGCCAACGUUCUCAACUAUGACACGCAAAACGCGUGCUCCGUUGAAUGGAGUUUAGCAUG, the “polymerase ribozyme fitness (log ratio)” value was at most -4.2.
Take GGAUCUUCUCGAUCCAACAAAAAAGACAAAUCUGCCACAAAGCUUGAGGGCAUCUUCGGAUGCAGAGGCGGCAGCCUUCGGUGGCGCGAUAGCGCCAACGUUCUCAACUAUGACAAGCAAAACGCGUGCUCCGUUGAUUGGAGUUUAUCAUG: the “polymerase ribozyme fitness (log ratio)” value was -3.99.
As for GGAUCUUCUCGAUCCAACAAAAAAGACAAAUCUGCAACAAAGCUUGAGAGCAUCAUCGGAUGCAGAGGCGGCAGCCUUCGGUGGCGCGAUAGCGCCAACGUUCUCUAUUAUGACGCUCAAAACGCGUGCUCCGUUGAAUAGAGUUUAUCAUG, the “polymerase ribozyme fitness (log ratio)” value was at most -4.2.
Under GGAUCUUCUCGAUCCAACAAAAAAGACAAAUCUGCCAUAAAGCUUGAGAGCAUCUUCGGAUGCAGAGGCGGCAGCCUUCGGUGGCAUGAUAGCGCCAAUGUUCUCAACUAUGACACGCAAAACGCGUGCUCCGUUGAAUGGAGUUUAUCAUG stands -3.87.
As to GGAUCUUCUCGAUCCAACAAAAAAGACAAAUCUGCCACAAAGCUUGAGAGCAUAUUGGGAUGCAGAGGCGGCAGCCUUCGGUGGCGUGAUAGCGCCAACGUUCUCAACUAUGACACGCAAAACGCGUGCUCCGUUGAAUGGAGUUUAUCGUG, the “polymerase ribozyme fitness (log ratio)” value was -3.99.
Under GGAUCUUCUCGAUCCAACAAAAAAGGCAAAUCUGCCACAAAGCGUGAGAGCAUUUUCGGAUGUAGAGGCGGCAGCCUUCGGUGGCGGGACAGCGCCAACGUUCUCAACUAUGACACGCAAAACGCGUGCUCCGUUGAAUGGAGUUUAUCAUG stands at most -4.2; under GGAUCUUCUCGAUCGAACAAAAAGGACAAAUCUGUCACAAAGCUUGAGAGCAUCAUCGGAUGCAGAGGCGGCAGCCGUCGGUGGCGCGAGAGCACCUACGUUCUCAACUAUGACACGCAAAACGCGUGCUCCGUUGAAUUGAGUUUAUCAUG, at most -4.2; under GGAUCUUCUCGAUCCAACAAAAAAGACAAAUCUGCCACAAAGCUUGAGAGCAUCUUCGGAUGCAGAGGCGGCAGCCUUCGGUGGUGCGAUAUCGCCAACGUUCUCAACUAUGACACGCAAAACGCGUGCUCCGUUGAAUGCAGCUUAUCAUG, -3.03.
As for GGAUCUUCUCGAUCGAACAAGAAAGACAAAUCUGCCACAAAGCUUGAGAGCAUCUUCGGAUGCAGAGGCGGCAGCCUUCGGUGGCGCGAUAGCGCCAACGUUCUCAACUAUGACACGCAAAACGCGUGCUCCGUCGAAUGGAGUUUAUCAUG, the “polymerase ribozyme fitness (log ratio)” value was -2.43.
Under GGAUCUUCUCGAUCCAACAAAAAAGACAAAUCUGCCACAAAGCUUGAGAGCAUCUUCGGAUGCAGAGGCGGCAGCCUUCGGUGGUGCGAUAGCGCCAACGUUCUCAACUAUGACACGCAAAACGCGUGCUCCGUUGAAUGGAGUUUAUCAUG stands -0.718.
In the case of GGAUCUUCUCGAUCGAACAAAAAUGACAAAUCUGCCACAAAGCUUGAGAGCAUCUUCGGAUGCAGAGGCGGCAGCCUUCGGUGGCGCGAUAGCGCCAACGUUCUCAACUAUGACACGCAAAACGCGUGCUCCGUUGAAUGGAGUGUCUCAUG it was -3.02.
For GGAUCUUCUCGAUCCAACAAAAAAGACAAAUCUGCCACAAAGCUUGAGAGAAUCUUCGGUUGCAGAGGCGGCAGCCUUCGGUGGCGCGAUAGAGCGAACGUUCUCAACUAUGACACGCAAAACGCGUGCUCCGUUGAAUAGAGUUUAUCAUG, the “polymerase ribozyme fitness (log ratio)” value was at most -4.2.
As to GGAUCUUCUCGAUCCAACAAACAAGACAAAUCUGCCACAAAGCUUGAGAGCAUCUUCGGAUGCAGAGGCGGCAGCCUUCGGUGGCGCGAUAGCGCCAACGUUCUCAACUAUGACACGAAAAACGCGUGCUCCGUUGAAUGGAGAUUAUCAUG, the “polymerase ribozyme fitness (log ratio)” value was -0.0778.
In the case of GGAUCUUCUCGAUCCAACAAAAACGACAAAUCUGCUACAUAGCUUGAGAGCAUCUUCGGAUGCAGAGGCGGCAGCCUUGGGUGGCGCGAUAGGGCCAACAUUCUCAACUAUGACACGCAAAACGGGUGCUCCGUUGAACGGAGUUUAUCAUG it was at most -4.2; in that of GGAUCUUCUCGAUCCAACAAAAAAGACAAAUCUGCCACAAAGCCUGAGAGCAUCUUCGGAAGCAGAGGCUGCAGCCUUCAGUGGCGCGAUAGCGCUAACGUUCUCAACUAUGACACGCAAAACGCGUGCUCCGUUGAAUGGAGUUUAUCAUG, at most -4.2; in that of GGAUCUUCUCGAUCCAACAAAAAAGACAAAUCUGCCACAAAUCUUGAGAUCAUCUUCGGAUGCAGAGGCGGCAGCCUUCGGUGGCGCGAUAGGGCCAACGUUCUCAACUAUGACACGCAAAACGCGUGCUCAGUUGAAUAGAGUUUACCUUG, at most -4.2.
In the case of GGAUCUUCUCGAUCAAACAAAAAAGACAAAUCUGCCACAAAGCUUGAGAGCAUCUUCGGAUGCAGAGGCGGCAGCCUUCGGUGGCGCGAUAGCGCCAACGUUCUCAACUACUACACGCAAAACGCGUGCUCCGUUGAAUGGAGUUUAUCAUG it was -3.91; in that of GGAUCUUCUCGAUCGUACAAAAAAGACAAAUCUGCCACAAAGCUUGAGAGCAUCUUCGGAUGCAGAGGCGGCAGCCUUCGGUGGCGCGAUAGCGUCAACGUUCUCAACUAUGACACGCAAUACGCGUGCGCCGUUGAAUGGAGUUUAUCAUG, at most -4.2.
Under GGAUCUUCUCGAUCCAACAAAAAAGACAAAUCUGCCACAAAGCUUGAGAGCAUCUGCGGAUGUAGAGGCGGCAGCCUUCGGUGGCGCGAUAGCGAAAACGUUCUCGACUAUGACACGCAAAACGCGUGCUCCGUUGAAUGGAGUUUAUCAUG stands -1.5.
Take GGAUCUUCUCGAUCCAACAAAAAAGACAAAUCUGCCACAAAGCUUGAGAGCCUCUUCGGAUGCAGAGGCGGCAGCCUUCGGUGGGGCGAUAGCACCAACGUUCUCAACUAUGACACGCAAAACGCGUGCUCCGUUGAAUGGAGUUUAUCAUG: the “polymerase ribozyme fitness (log ratio)” value amounted to 0.00508.
Under GGAUCUUCUCGAUCCAACAAAAAAGACAAAUCUGCCACAACGCUUGAGAGCAUCUUUGGAUGCAGAGGCGGCAGCUUUCGGUGGCGCGAUAGUGCCAACGUUCUCAACUAUGACACGCAAAACGCGUGCUCCGUUGAAUGGAGUUUAUCAUG stands -0.0442; under GGAUCUUCUCGAUCCAUCAAAAAAGACAAAUCUGCCACAAAGCUUGAGAGUAUCUUCGGAUGCAGAGGCGGCAGCCUUCGGUAGCGCGAUAGCGCCAACGUUCUCAACUAUGACACGCAAAAGGCGUGCUCCGUUGAAUGGAGUUUAUCAUA, -2.38.
For the variant GGAUCUUCUCGAUCGAACAAAAAAGACAAAUCUGCCUCAAAGCUUGAGAGCAUCUAAGGAUGCAGAGGCGGCAGCCUUCGGUGGCGCGAUAGCGCCAACGUUCUCAACUAUGACACGCAAAAUGCGUGCUCCGUUGAAUGGAGUUUAUCAUG, the “polymerase ribozyme fitness (log ratio)” value was -1.55.
